Assay results: the supplement of paper PMC9170038

Key:
MS2 coat protein = assay: apparent KD of MS2 coat protein; higher = weaker reporter binding; conditions: Eterna round: R107
Experimental: (§1)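 RNA-MaP round R107: designed RNA switches with theophylline, tryptophan, arginine or FMN aptamers are transcribed on-chip within common flanks. They are titrated with SNAP-549-labelled MS2 coat protein in RNA-MaP buffer (100 mM Tris pH 7.5, 80 mM KCl, 4 mM MgCl2), without ligand or with the indicated ligand. Median apparent KD per design.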

[1] = test system: K4 kissing-loop RNA reporter; assay: apparent KD of K4 kissing-loop reporter; higher = weaker reporter binding; conditions: Eterna round: R107;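 further: bound reporter read as fluorescence of individual clusters on recovered sequencing chips by microscopy, with normalized cluster intensities fitted with a binding model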
Experimental: as §1, with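 “a labelled K4 kissing-loop RNA reporter” for “SNAP-549-labelled MS2 coat protein”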

[2] = input ligand: theophylline 20 uM
[3] = input ligand: theophylline 2 mM
[4] = input ligand: tryptophan 2.4 mM

Sequence	apparent KD of MS2 coat protein (MS2 coat protein; input ligand: arginine 13.2 mM) [nM]	apparent KD of MS2 coat protein (MS2 coat protein; input ligand: none) [nM]	apparent KD of MS2 coat protein (MS2 coat protein; [2]) [nM]	apparent KD of MS2 coat protein (MS2 coat protein; [3]) [nM]	apparent KD of MS2 coat protein (MS2 coat protein; [4]) [nM]	apparent KD of K4 kissing-loop reporter ([1]; input ligand: FMN 200 uM) [nM]	apparent KD of K4 kissing-loop reporter ([1]; input ligand: arginine 13.2 mM) [nM]	apparent KD of K4 kissing-loop reporter ([1]; input ligand: none) [nM]	apparent KD of K4 kissing-loop reporter [1, 2] [nM]	apparent KD of K4 kissing-loop reporter [1, 4] [nM]
AAAAGUAGGUCCAAUAAAACUACAUGUGAAGGAGCGCCCGAAAGGGCAGGUAGGUCGCACAUGAGGAUCACCCAUGUCCUACAAA [ArgEX 7 #OpenEnded]	50.1	86.1	103	86.1	71.8	–	–	–	–	–
AAAAUCCUACCUGAGGAUCACCCAGGUGAAGGAGCGCCCGAAAGGGCAGGUAGGUCGCACCUGAGGAUCACCCUGGUAAACCUAA [ArgEX 22 #DoubleMS2 #OpenEnded]	30.9	44	47.6	56.8	40.6	–	–	–	–	–
AAAGCCACUUCGGCCGCCACUACAACAUGAGGAUCACCCAUGUACCUCGUGUACGGUCCGAGGAGUAGGACCGGGAAGUGGUGGA [(T1'')-(Trp1)-(Ms2)-(M')-(T2')-(M'')-(Trp2)-(T1')]	94	–	193	175	–	–	–	–	–	–
AAAUAAAUAACUGAUACCAGUGGACUGACAUGAGGAUCACCCAUGUUGGGUUUUGUUGUCCACCCUUGGCAGCAGGGAUAUAAAA [#24 Exclusion-TheophyllineB]	24.4	38.5	54.7	70.9	43.4	–	–	–	–	–
AAAUAAAUACAUGAGGAUCACCCAUGUGAAGGAGCGCGCGUUAGCGCAGGUAGGUCGCACAUGAAUAACUCCGCGCGAAAGCGCA [MAT - Exclusion Arginine A - Mod of Eli - D11]	11.8	17.4	23.7	19.6	16.4	–	–	–	–	–
AAAUAAAUACAUGAGGAUCACCCAUGUGAAGGAGCGGCCGUUAGGCCAGGUAGGUCGCGCAUGAAUAACUCCGUGCAUAAGCACA [MAT - Exclusion Arginine A - Mod of Eli - D18]	10.6	11.1	16.6	12.2	12.3	–	–	–	–	–
AACAUGAGGAUCACCCAUGUACCUUUCGAUCGAGGACCGGUACGGCCGCCACUCGAAAACAUGAGGAUCACCCAUGUUCAACAGG [Tryp A SS t3]	58.7	–	128	154	–	–	–	–	–	–
AACAUGAGGAUCACCCAUGUGUCCUCGAAACGAGGACCGGUACGGCCGCCACUCGAGCUAUGUUGACGAAAAGUCAGCAUAGCAA [Mat - Exclusion - Trytophan A - D13]	123	276	316	374	1080	–	–	–	–	–
AACCGAGGCUAUCCUCUAAGAAUAUGUGAUACCAGAAUAAUUUUAUUCCCUUGGCAGCAUGACAUGAGGAUCACCCAUGUGUCUU [SSTheo A #7]	70	–	136	–	136	–	–	–	–	–
AACGUAUACAGAAGGAGCGUGAUUUAUUAUUCUUUAAGAUAUACAUGAGGAUCACCCAUGUCACAGGUAGGUCGCUGUAUUCGUA [JR_ExcArginiB_Sub025]	31	34.3	42.3	36.7	34.6	–	–	–	–	–
AACGUAUACAGAAGGAGCGUGAUUUGUGUUACUCAUUCAUAUACAUGAGGAUCACCCAUGUCACAGGUAGGUCGCUGUAUUCGUA [JR_ExcArginiB_Sub022]	39.8	166	128	87.1	53.8	–	–	–	–	–
AACUACUCGAGGUGAUCCUACGAGUGGCAACGAGGACCGGUACGGCCGCCACUCGAAUAAACAUGAGGAUCACCCAUGUACAAAU [T''-M'-T'-T-MS2 - Design 12]	92.2	–	259	220	–	–	–	–	–	–
AAGGUGAUCCUCGAUACCAGCUCAACAUGAGGAUCACCCAUGUAAGCCUGGAAACAGGCGAGCCCUUGGCAGCGAGUUACAUCAA [(M)'-(Theo1)-(Ms2)-(Theo2)-(M'')]	32.9	–	78.2	–	18.6	–	–	–	–	–
AAGUAAACAUGAGCAAAGCUCAUGUGCGAAGGAGCGGCGGAAACGCCAGGUAGGUCGCGCACAUGAGCAUCAGCCAUGUGUAUCA [Omei Arginine B SS A v2]	45.3	31	33.5	22.1	9	–	–	–	–	–
AAGUGGCACGGAAGGAGCGAGUUUACCUAUUACAUGAGGAUCACCCAUGUGUAUAAUGGGACUCAGGUAGGUCGCCGUUGUCACU [Same State Arginine B GF 25]	31.5	35.7	49	44.3	31.6	–	–	–	–	–
AAUAAACAUGAGGAUCACCCAUGUAGGGUGCGAGGACCGGUACGGCCGCCACUCGGGUGAAAACAUGAGGAUCACCCAUGUUAAA [Cloverleaf #DoubleMS2 #GUTurnoff]	75.5	–	176	229	–	–	–	–	–	–
AAUAAAUCGCCUGAUACCAGCGCUGGCGGACAUGAGGAUCACCCAUGUGUUACAGGCGGACGCCCUUGGCAGCGGAGCGGGAUCU [U-Shape]	16.2	20.2	21.4	23	19.6	–	–	–	–	–
AAUAACAAGAGGAUCACCCUUGUAAAAGAUACCAGAGUGAUGAUCCUCCCUUGGCAGCUUAACGCUGAUUGAUUACAAUCAGCGA	27	35.5	81.8	142	32	–	–	–	–	–
AAUAAUAACUGAAGGAGCGUCUAUAUUACAUGAGGAUCACCCAUGUUUAUAUGGUAUUAUAGACAGGUAGGUCGCAGAUUUUUUA [JR_SSArginiB_Sub016]	14.5	16.6	22.1	18.6	16.3	–	–	–	–	–
AAUAAUAAGGCGGCCGCCACUACACAUGAGGAUCACCCAUGUCUCGCGGGCUUGCGUUGGGAUUGUAGGACCGGGCCAAUAAUAA [Exclusion - Tryptophan B (Freestyle 11)]	15.2	–	35.7	30.4	–	–	–	–	–	–
AAUGCCGGAUCGGCCGCCACUGGUUGGCUCUGUGUACAUGAGGAUCACCCAUGUCCAUCCCAAACCAGGACCGGGAUCUUUGUGU [Veonmale]	14.6	–	17.4	13.5	–	–	–	–	–	–
AAUGCUGCCAAGGAUUCCUCAUGAGCAGAUACCAGCUAGGAAACUAGCCCUUGGCAGCUGCAACAUGAGGAUCACCCAUGUAAUA [(T)'-(M)'-(T1)-(T2)-(M1)-(M2)_Design7]	31	–	94.2	–	35.7	–	–	–	–	–
AAUGGCCGUACCGGAAGGGUGAUCCUCAAACGAGGACCGGUACGGCCGCCACUCGAUAACAUGAGGAUCACCCAUGUAAUAAUAA [|T'-M'-Trp-Ms2|_Design13]	85	–	481	677	–	–	–	–	–	–
AAUGUAAUAGUCGUACUCUUACACUGAGAAGGAGCGCGAAAGUUCGCAGGUAGGUCGCUCAGUUAUACAUGAGGAUCACCCAUGU [Bebemaata]	24.1	24.8	28.3	27.9	24.1	–	–	–	–	–
AAUGUAUGGCACAUGAGGAUCACCCAUGUGCGAGGACCGGUACGGCCGCCACUCGGUCCUGGGUUCUUAUUACUAUACAUUAAUG [XTryp A #15]	9.78	11	16	14.4	27.1	–	–	–	–	–
AAUUCCUAACAUGAGGAUCACCCAUGUGAAGGAGCGCCGAAUAAGGCAGGUAGGUCGCACAUGGAACUGCUACGAAAGUAGAAAA [XArg-A 4 V2mod]	19.2	16.2	23.3	35.1	18.8	–	–	–	–	–
UUUUUAUAAGAGGAUACCAGUACAAAUAAAGUACAUUAAUAGUAGAGUGAUGUUCUAAAGUACCCUUGGCAGCUUAGAGUAAGUU [ExTheophylB.C]	–	–	–	–	–	161	281	174	239	115
UUUUUGGAGAAUUAUAGUGAUGUUAUGAAGGAGGAUAUCUAAAGAUGGAGAAGGUUUAAUAGUUAAGGGAUGGAGGGUGGGUGGG [ExFMNA.Q]	–	–	–	–	–	372	180	320	208	229
UUUUUUAAGAUAUUGACCAACCCGAAGCUACGAGGACCGGUACGGCCGCCACUCGCCAGUGAUGUUGGCGACUGGUGAAACCAUG [KL-XTryp-A24]	–	–	–	–	–	126	98.9	106	105	185
UUUUUUAGUUGAGUUAUACAUAGCGGACUAUAGGAUAUCUAGAAAUAGAGAAGGAUAAGAGUGAUGUUCUUAUUCAACUAUAGUG	–	–	–	–	–	101	87.4	90.9	109	91.6
